Two molecules from paper PMC10629557, “Regulation of replication origin licensing by ORC phosphorylation reveals a two-step mechanism for Mcm2-7 ring closing” (Proceedings of the National Academy of Sciences of the …, 2023) can be followed below.

To fix the notation:
B2: FLAG-Clb5-Cdk1 (complex)
chain 1: MGENHDHEQSIKRNSMIYNENERQLCNSNLKILQNKRALSKNDSSSKQQVQDSKPRRALTDVPVNNNPLSQNKRIVAGSKAAKVRREENIRPIVSAVQKRQIYNDRTAAEQEEEEEEEGEDDDAASIVNKKRRIDAEGVSEIVGWQDLDYVEKDDTAMVAEYSAEIFAFLYRRELETLPSHNYLLDKTSKYYLRPSMRTILVDWLVEVHEKFQCYPETLFLSINLMDRFLAKNKVTMNKLQLLAVTSLFIAAKFEEVNLPKLAEYAYITDGAASKNDIKNAEMFMLTSLEFNIGWPNPLNFLRRISKADDYDPVNRNIGKFILEYAYCCHQFIHLPPSTVSAMAMYIARRMTNRNKNELWNGTLQHYSGGIDPIHDEAFQSLCIDLVKDIASSKTHLDSLILKYKKPRYGSVYFQTFKWCTSEMHSNFQNLFNLK
chain 2: not shown
notes: Clb5, S-phase B-type cyclin, S. cerevisiae; Cdk1 (Cdc28), cyclin-dependent kinase, S. cerevisiae; also called Clb5-Cdc28; source: S. cerevisiae strain ySK119, purified

Test [1] deals with B2. The test can be described thus: co-IP; purified proteins: 5 pmol FLAG-Clb5-Cdk1 and 10 pmol ORC in 20 uL SM buffer with 1 mM ATP, 20 min; 10 pmol GST-Sic1 added to one of two reactions for 5 min; magnetic anti-Flag beads, 3 washes, elution with 3xFLAG peptide, SDS gel. The conditions noted are these: both partners purified.
The target in test [2] is T1, origin recognition complex (ORC), wild type, unphosphorylated (S. cerevisiae, UniProt P54784 1-914; P32833 1-620; P54790 1-616; P54791 1-529; P50874 1-479; P38826 …).
T1 construct: Orc1, subunit of the origin recognition complex, S. cerevisiae; Orc2, subunit of the origin recognition complex, S. cerevisiae; Orc3, subunit of the origin recognition complex, S. cerevisiae; Orc4, subunit of the origin recognition complex, S. cerevisiae; Orc5, subunit of the origin recognition complex, S. cerevisiae; Orc6, subunit of the origin recognition complex, S. cerevisiae; For the …
Described as above. The note with it: both partners purified.

Sequence of FLAG-Clb5-Cdk1 (P00546 whole entry): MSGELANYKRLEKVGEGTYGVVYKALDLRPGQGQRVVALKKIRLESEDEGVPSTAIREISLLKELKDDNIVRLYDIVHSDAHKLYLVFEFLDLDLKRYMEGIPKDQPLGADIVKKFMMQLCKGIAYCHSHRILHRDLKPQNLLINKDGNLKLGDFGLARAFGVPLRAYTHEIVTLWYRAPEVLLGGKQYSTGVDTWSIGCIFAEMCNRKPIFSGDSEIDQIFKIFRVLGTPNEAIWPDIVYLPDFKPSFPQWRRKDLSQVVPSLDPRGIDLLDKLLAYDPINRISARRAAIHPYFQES

B1: GST-Sic1 (natural protein, S. cerevisiae, UniProt P38634 1-284, looked up)
chain: MTPSTPPRSRGTRYLAQPSGNTSSSALMQGQKTPQKPSQNLVPVTPSTTKSFKNAPLLAPPNSNMGMTSPFNGLTSPQRSPFPKSSVKRTLFQFESHDNGTVREEQEPLGRVNRILFPTQQNVDIDAAEEEEEGEVLLPPSRPTSARQLHLSLERDEFDQTHRKKIIKDVPGTPSDKVITFELAKNWNNNSPKNDARSQESEDEEDIIINPVRVGKNPFASDELVTQEIRNERKRAMLRENPDIEDVITYVNKKGEVVEKRRLTDEEKRRFKPKALFQSRDQEH
notes: source: E. coli BL21-DE3-Rosetta (plasmid pGEX-Sic1), purified (glutathione elution)
In the case of B1, the binding result in test [1] was “binds”.
Consider B2, for which the binding result in test [2] was “binds”.
